# Laboratory results reported in US20230235072A1 (DENALI THERAPEUTICS, published 2023).
# Where a chain is given by its changes, count along the chain named.
# B1: Clone CH3B.1 (designed binder)
# chain: PCPAPELLGGPSVFLFPPKPKDTLMISRTPEVTCVVVDVSHEDPEVKFNWYVDGVEVHNAKTKPREEQYNSTYRVVSVLTVLHQDWLNGKEYKCKVSNKALPAPIEKTISKAKGQPRFDYVTTLPPSRDELTKNQVSLTCLVKGFYPSDIAVEWESNGQPENNYKTTPPVLDSDGSFFLYSKLTVDKSRWQQGNVFSCSVMHEALHNHYGFHDLSLSPGK
# B2: Clone CH3B.2 (designed binder)
# chain: B1 chain with Y120M
# B3: Clone CH3B.3 (designed binder)
# chain: B1 chain with D119E
# B4: Clone CH3B.4 (designed binder)
# chain: B1 chain with D119E, Y120M
# B5: Clone CH3B.5 (designed binder)
# chain: B1 chain with D119E, Y120L
# B6: Clone CH3B.6 (designed binder)
# chain: B1 chain with D119E, Y120I
# B7: Clone CH3B.7 (designed binder)
# chain: B1 chain with Y120I
# B8: Clone CH3B.9 (designed binder)
# chain: B1 chain with D119G, Y120M
# B9: Clone CH2C.3 (designed binder)
# chain: PCPAPELLGGPSVFLFPPKPKDTLMISRTPEVTCVVVDPQTPPWEVKFNWYVDGVEVHNAKTKPREEEYYSNYRVVSVLTVLHQDWLNGKEYKCKVSNKALPAPIEKTISKAKGQPREPQVYTLPPSRDELTKNQVSLTCLVKGFYPSDIAVEWESNGQPENNYKTTPPVLDSDGSFFLYSKLTVDKSRWQQGNVFSCSVMHEALHNHYTQKSLSLSPGK
# B10: Clone CH2C.1 (designed binder)
# chain: B9 chain with S71T, N72Y
# B11: Clone CH2C.2 (designed binder)
# chain: B9 chain with Q40P, T41S
# B12: Clone CH2C.4 (designed binder)
# chain: B9 chain with P39F, Q40R, T41G, S71H, N72D
# B13: Clone CH2C.5 (designed binder)
# chain: B9 chain with P42V
# B14: Clone CH2C.6 (designed binder)
# chain: B9 chain with Q40K, T41M, S71T, N72Y
# B15: Clone CH2C.7 (designed binder)
# chain: B9 chain with Q40P, T41V
# notes: found on phage
# B16: Clone CH2C.8 (designed binder)
# chain: B9 chain with Q40A, T41F, S71Q
# Biological target: T1, human transferrin receptor (TfR) ectodomain (ECD) (human, UniProt P02786 121-760, biotinylated where captured on streptavidin)
# T1 construct: also called human TfR; huTfR
# Assay: ELISA, Fc-Fab fusion (dimer format) titrated on plate-coated human TfR; OD650
# Method: Fc regions comprising the CH3B clone sequences were fused to Fab fragments and were assayed in a dimer format.
Binder,EC50 (read off the curve),binding result
B1,~4 nM,
B2,~4 nM,
B3,,binds
B4,,binds
B5,,binds
B6,,binds
B7,,binds
B8,,binds

# Biological target: T2, cynomolgus transferrin receptor (TfR) ectodomain (ECD) (cynomolgus, UniProt Q5RDH6 121-760 (Pongo abelii entry), biotinylated where captured on streptavidin)
# T2 construct: also called cyno TfR; cynoTfR
# T2 chain: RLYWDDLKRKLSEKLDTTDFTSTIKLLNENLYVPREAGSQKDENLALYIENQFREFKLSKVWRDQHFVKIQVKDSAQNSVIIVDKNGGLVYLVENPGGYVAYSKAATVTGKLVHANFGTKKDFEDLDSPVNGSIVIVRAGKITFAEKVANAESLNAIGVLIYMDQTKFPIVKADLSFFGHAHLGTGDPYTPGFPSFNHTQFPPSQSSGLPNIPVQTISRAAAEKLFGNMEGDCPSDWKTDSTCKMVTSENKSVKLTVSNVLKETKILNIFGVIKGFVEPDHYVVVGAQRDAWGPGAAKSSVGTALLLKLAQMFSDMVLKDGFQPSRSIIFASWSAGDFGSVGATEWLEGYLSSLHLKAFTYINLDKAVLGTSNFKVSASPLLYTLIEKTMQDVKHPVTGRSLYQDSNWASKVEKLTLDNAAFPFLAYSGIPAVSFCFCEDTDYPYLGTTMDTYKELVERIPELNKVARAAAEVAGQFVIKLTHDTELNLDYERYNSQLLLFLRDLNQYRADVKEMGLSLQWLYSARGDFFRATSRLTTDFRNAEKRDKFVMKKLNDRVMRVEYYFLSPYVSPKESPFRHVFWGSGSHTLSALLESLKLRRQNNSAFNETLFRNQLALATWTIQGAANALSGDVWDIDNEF
# Assay: ELISA, Fc-Fab fusion titrated on plate-coated cyno TfR; OD650
# From the text: (§1) The CH2C variants were expressed as Fc fusions to Fab fragments by cloning into an expression vector containing an anti-BACE1 benchmark variable region sequence.
Binder,binding result,EC50 (read off the curve)
B9,binds,
B10,,~8 nM
B11,binds,
B12,,~8 nM
B13,binds,
B14,binds,
B15,binds,
B16,binds,

# Biological target: T1, human transferrin receptor (TfR) …
# Assay: ELISA, Fc-Fab fusion titrated on plate-coated human TfR; OD650
# From the text: as §1
row,Binder,binding result
1,B9,binds
2,B10,binds
3,B11,binds
4,B13,binds
5,B14,binds
6,B15,binds
7,B16,no binding (tested: 1000 nM)

# Biological target: T2, cynomolgus transferrin receptor (TfR) …
# Assay: ELISA, Fc-Fab fusion (dimer format) titrated on plate-coated cyno TfR; OD650
Binder,EC50 (read off the curve),binding result
B1,~3 nM,
B2,~2 nM,
B3,,binds
B4,,binds
B5,,binds
B6,,binds
B7,,binds
B8,,binds
